Laboratory results as given in US8236512B1, “Methods of developing terpene synthase variants” (Amyris, Inc., priority 2011, dated 2012).

What was measured:
[1] = test system: CC(C)=CCC/C(C)=C/CC/C(C)=C/CO[P@@](=O)(O)OP(=O)(O)O; experiment: Steady-state kinetics of purified farnesene synthase variant FS_B_5.3; format: biochemical, Artemisia annua; settings: other: purified enzyme, 20.0 °C
[2] = test system: CC(C)=CCC/C(C)=C/CC/C(C)=C/CO[P@@](=O)(O)OP(=O)(O)O; experiment: cells, lysate or membranes named; settings: other: purified enzyme, steady-state; 20.0 °C

Artemisia annua β-farnesene synthase, wild type, SEQ ID NO: 111 (FS_Aa_Ec coding sequence, SEQ ID NO: 62) (Artemisia annua), sequence (chain, as listed by the source): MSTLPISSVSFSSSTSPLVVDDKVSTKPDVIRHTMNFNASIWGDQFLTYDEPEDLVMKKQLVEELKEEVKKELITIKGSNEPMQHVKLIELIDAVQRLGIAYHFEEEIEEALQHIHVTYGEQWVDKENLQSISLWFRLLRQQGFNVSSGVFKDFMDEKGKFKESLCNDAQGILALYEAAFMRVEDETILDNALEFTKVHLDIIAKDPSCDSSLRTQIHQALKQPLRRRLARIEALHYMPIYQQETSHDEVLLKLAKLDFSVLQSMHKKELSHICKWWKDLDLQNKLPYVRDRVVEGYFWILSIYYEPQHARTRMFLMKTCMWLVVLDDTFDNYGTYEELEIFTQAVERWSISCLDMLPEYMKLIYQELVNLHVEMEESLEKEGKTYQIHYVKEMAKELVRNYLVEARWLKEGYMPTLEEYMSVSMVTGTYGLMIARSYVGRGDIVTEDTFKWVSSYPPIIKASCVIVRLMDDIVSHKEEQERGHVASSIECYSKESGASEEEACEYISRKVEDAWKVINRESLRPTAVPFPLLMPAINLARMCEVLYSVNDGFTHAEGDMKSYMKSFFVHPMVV

With “Artemisia annua β-farnesene synthase (SEQ ID NO: 111) variant FS_B_5.3 F11S/V24D/M35T/T196S/Y288F/T319S/I434T/T446N/I460V/V467I (FS_B_5.3_Ec; parent coding sequence FS_B, SEQ ID NO: 119) (Artemisia annua; F11S/I437T/I463V/M35T/T196S/T319S/T449N/V24D/V470I/Y288F)” the Km [1] was 1.18 ± 0.44 µM and the kcat [1] was 0.093 ± 0.009 s⁻¹.
In the case of “Artemisia annua β-farnesene synthase, wild type, SEQ ID NO: 111 (FS_Aa_Ec coding sequence, SEQ ID NO: 62) (Artemisia annua)”, the Km [2] is reported as 0.58 ± 0.19 µM and the kcat [2] is reported as 0.071 s⁻¹.
